Assay: yeast display, Sf9 membrane polyspecificity reagent, FACS + sequencing; frameworks hold sequencing errors
Summary of the method: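 After 36–48 hours of galactose induction, yeast (Saccharomyces cerevisiae BJ5465) displaying a synthetic nanobody library were stained at 4 °C for 1 hour with 10% biotinylated, detergent-solubilized Sf9 membrane reagent. Streptavidin microbeads enriched the stained cells before FACS sorting into low and high (top ~1%) gates on anti-HA and streptavidin fluorescence. Each clone's polyreactivity label reflects its gate of origin.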

Row | Sequence | polyreactivity (PSR sort gate)
1 | QVQHVESGVGLVQAVGSLRLSCAASGLTIDYNAMGWDRQAPVKERELVAAISWSGGSTYYADSLKGRFTISRDNAKNTVYLQMNSLKPEDNAVYYCNALPHIVIGGIICYEYWGQGTQVTVSS | high polyreactivity
2 | PVKLVESGGGLVQAGGSLRLSCAASGFTFFRNAMGWYRQAPGKERELVAAISGSGGRTYDADSVKGRFTISRDNAKNPVYLQLNSLKLEDTAVYYCAAVPVDPGYDYWGQGTQVTVSS | high polyreactivity
3 | QVQLVESGGGLVQAGGSLRLSCAASGLIFSYNAMGWYRQAPGKERELVAAISYSGGSTYYADSVKGRFTISRDNAKNTVYLQMNSLKPEDTAVYYCAAVLSPDFYYWGQGTQVTVSS | high polyreactivity
4 | QVQIVESGGGLVQAGGSLRISCAASGSIFIYYAMGWYRQAPGKDRELVAAISNGGSTNYADSVKGRFTISRDNANNTVYLLMNRLTPEDTSVFYCNKQYWYWSNTLTIRDYWGQGTQVTVSS | low polyreactivity
5 | QVQLVESGGGLVQAGGSLRLSCSAYGFIFTGYAMGWYRQAPGKEREFVAAISYSGGSTYADSVKGRFTISRDNAKNSVYLQMNSLKPEDTAVYYCNARQGLWRYTAENDYWGQGTQVTVSS | low polyreactivity
6 | QVQLQESGGGLVQAGGSLRLSCAASGTITVLYKMVWFRQAPGKEREFVASINYGTSTYYADSVKGRFTVSRDSAKNTVYLQMNSLKPEDTAVYYCAAAYRWQDVYRYWGQGTQVTVSS | low polyreactivity
7 | QVQLVESRGGLVQAGGSLRLSCAASGFTFYYYAMGWYRQAPGKERELVAAISGRGGSTYYADSVKGRFTISRDNAKNSVYLQMNSLKPEDTAVYYCAAVPIVRLEYWGQGTQVTVSS | high polyreactivity
8 | QVQLVESGGGLVQAGGSLRLSCAASGLTFSYYTMGCYRQAPGKERELVARISNRGTNTYYADSVKGRFTISRDNAKNTVYLQMNSLKPEDTAVYYCAKYYYTSIVGYDSWGQGTQVTVSS | low polyreactivity
9 | EVQLVESGGGLVQAGGSLRLSCAASGRTFLVNAMGWSRPAPGKERELVAAISRSSGRTYYADSVKGRFTISRDNAKNTVYLQMNSLKPEDTAVYYCAARGYWGQGTQVTVSS | high polyreactivity
10 | QVQLVESGGGLVQAGGSLRLSCAASGFTFNSYAMGWYRQAPGKERELLAAISRIGGITYYADSVKGRFTISRDNAKNTVYLQMNSLKPEDTAVYYCNTASVYVYTGRYDYWGQGTQVTVSS | high polyreactivity
11 | QVQLVESGGGLVQAGGSLRLSCAASGSTFDANAMGWYRQAPGKERELVATISDGGSTNYADSVKGRFTISRDNAKNTVYLQMNSLKPEDTAVYYCAAVKLFLGLGYDYWGQGTQVTVSS | low polyreactivity
12 | QVQLVESGGGLVQAGGSLRLSCAASVRTFHYYAMGWYRQAPGKERELVAGITGGGSTYYADSVKGRFTISRDNAKNTVYLLMNSLKPEDTAVYYCADDRSYYGYGYCGQGTQVTVSS | low polyreactivity
13 | QVQLVESGGGLVQAGGSLRLSCAASGSIFVWYDMGWYRQAPGKERELVATFSLSGVSTYYADSVKGRFTISRDNAKNTVYLQMNSLKPEDSAVYYCAADFVEQGEDDYWGQGTQVTVSS | low polyreactivity
14 | QVQLVESGGGLVQAGGSLRLSCAASGSIFSYYAMGWYRQAPGKERELVAAITVRGGSTYYADSVKGRFTISRDNAKNTVYLQMNSLKPEDTGVYYCAADWLDESFSYGPYYYWGQGTQVTVSS | low polyreactivity
15 | QVQLVESGGGLVQAGGSLRLSCAASGSIFFAYAMGWYRQAPGKERELVAAITSGVSTNYADSVKGRFTISRDNAKNTVYLQMNSLKPEDTAVYYCNADFDYGFDAGLAVQVVIHDYWGQGTQVTVSS | low polyreactivity
16 | QVQLVESGAGLVQAGGSLRLSCAASGSTLYRYAMGWYRQAPGKERELVAAISRRGDSTYYADSVKGRFTISRDNAKNTVYLQMNSLKPEDTAVYYCNTARSAGKYDYWGQGTQVTVSS | high polyreactivity

Row | Sequence | polyreactivity (PSR sort gate)
17 | QVQLVESGGGLVQAGGSLRLSCAASGITFPRYAMGWYRQAPGKERELVAAISKSGGRTYYADSVKGRFTISRDNAKNTVYLQMISLKPEDTAVYYCAADPLLGYLSHYYWGQGTQVTVSS | high polyreactivity
18 | QVQLEESGGGLVQAGGSLRISCAASGFIYRDYDMGWYRQAPGKERELVAAISLSGGSTYYADSVKGRFTISRDNAKNTVYLQMNSLKPEDTAVYYCAAVSAYEGNYWGQGTQVTVSS | high polyreactivity
19 | QVQLVESGGGLVQAGGSLRLSCAASGSTFVPYAMGWYRQAPGKERELVAAITTSGGNTYYADSVKGRFTISRDNAKNTVYLQMNSLKPEDTAVYYCAADTYRRFDYWGQGTQVTVSS | low polyreactivity
20 | QVQLVESGGGLVQAGGSLRLSCAASGRTFNQYAMGWYRQAPGKERELVAAISRRTGRTYYADSVKGRFTISRDNAKNTVYLQMNSLKPEDTAVYYCNTLYFVGPDYGYDYWGQGTQVTVSS | high polyreactivity
21 | QVQLVESGGGLVQAGGSLRLSCAASGRTFRAYAMGWYRQAPGKETELVASISRRGGSTYYADSVKGRFTISRDNAKNTVYLQMNSLKPEDSAVYYCAASDNYLQYDYWGQGTQVTVSS | high polyreactivity
22 | QVQLVESGGGLVQAGGSLRLSCAASGIIFESNAMGWYRQAPGKERELVAAITGRGGRTYYADSVKGRFTISRDNAKNTVYLQTNSLKPEDTAVYYCAADGLRLVPGYKYDYWGQGTQVTVSS | high polyreactivity
23 | QVQLVESGGGLVQAGGSLRLSCAASGSTFRVYAMGWYRQAPGTERELVATINVSGGSTYYADSVKGRFTISRDNAKNTVYLQMNSLKPEDTAVYYCAKEDGAYGYPFDYWGQGTQVTVSS | low polyreactivity
24 | QVQLVESGGGLVQAGGSLRLSCAASGRIFSYYAMGWYRQAPGKERELVAAISSSGGSTYYADSVKGRFTISRDNAKNTVYLQMNSLKPEDTAVYYCAKLQYGFGRYGYWGQGTQVTVSS | high polyreactivity
25 | QVQLVESGGGLVQAGGSLRLTCAASGSTFINYAMGWYRQAPGKERELVAAYADSVKGRFTISRDNAKNTVYLQMNSLKPEDTAVYYCNAVTGEWGQGTQVTVSS | low polyreactivity
26 | QVQLVESGGCLVHAGGSLRLSCAASGRIFYTYAMGWYRQSPGNESELVAAISSRTVSTKYADSVKGRFTISRDNAKYTVYLQMNSLKPEDTAVYYCNVYSLRYGYDYCGQGTQVTVSS | high polyreactivity
27 | QVQLVESGGGLVQAGGSLRLSCADSGRTFRYYAMGWYRQAPGKERELVAAITSGGSTYYADSVKGRFTISRDNAKNTVYLQMNSLKPEDTAVYYCAAARYEPFIYDYGYWGQGTQVTVSS | low polyreactivity
28 | QVQLVESGGGLVQAGGSLRLSCAASGRTFGKNAMGWYRQAPGKERELVAAISFSGGRTYYADSVKGRFTISRDNANNTVYLQMNSLKPEDTAVYYCAARGSRRGTWYDYWGQGTQVTVSS | high polyreactivity
29 | QVQLVESGGGLVQAGGSLRLSCAASGIIFRYYAMGWYRQAPGKERELVASITARSGSTYYADSVKGRFTISRDNAKNTVYLQMNSLKPEDTAVYYCAKSGKPARYYYWGQGTQVTVSS | high polyreactivity
30 | QVQLVESGGGLVQAGGSLRLSCAASGSTFAPNAMGWYRQAPGKERELVAAISSGGDSTNYADSVKGRFTISRDNAKNTVYLQMNSLKPEDTAVYYCAHGYWFVAYDYWGQGTQVTVSS | low polyreactivity
31 | QVQLVESGGGLVQAGGSLRLSCAASGLIFPVYTLGWYRPAPGKERELVAAITSSGDSTYYADSVKGRFTISRDNAKNTVYVQMNSLKPEDTAVYYCAARLVEKYGGTYSFDYWGQGTQVTVSS | low polyreactivity
32 | HVQLVESGGGLVQARGSLRLSCAASGSTFDNYTMGWYRQAPGKERELVAAITRNSGSTYYADSVKGRFTISRDNEKNSVYLHMNSLKPEDTAVYYCAADSYYRRYFGWYEYWGQGTQVTVSS | high polyreactivity
